Results reported in patent US20240299493A1 (ACCELERON PHARMA, published 2024).
Blank lines part the entries; values can stand above or below the molecule they belong to.

Columns and labels:
activin A [1] = target: T1, activin A (UniProt P08476 311-426); assay: cell-based or functional assay
T1 construct: also called ActA
T1 sequence (looked up): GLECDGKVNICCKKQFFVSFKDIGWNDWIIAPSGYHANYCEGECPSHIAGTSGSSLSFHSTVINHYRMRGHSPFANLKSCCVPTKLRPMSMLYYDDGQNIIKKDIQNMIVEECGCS

GDF11 [2] = target: T2, GDF11 (UniProt O95390 299-407); assay: cell-based or functional assay
T2 sequence (looked up): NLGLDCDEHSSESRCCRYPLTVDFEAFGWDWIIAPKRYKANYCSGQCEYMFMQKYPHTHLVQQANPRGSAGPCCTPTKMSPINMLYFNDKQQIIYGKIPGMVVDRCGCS

activin A [3] = target: T1, activin A; assay: Biacore; Fc fusion captured by anti-hFc antibody, ligand flowed
Description: (§1) Binding of certain ActRIIB-Fc proteins and ActRIIB variant Fc fusion polypeptides to ligands was tested in a Biacore™ assay.
(§2) The ActRIIB-Fc variants or wild-type protein were captured onto the system using an anti-hFc antibody. Ligands were injected and flowed over the captured receptor proteins.

GDF11 [4] = target: T2, GDF11; assay: as above
Description: as §1, §2

GDF8 = target: T3, GDF8 (UniProt O14793 267-375); assay: as above
T3 construct: also called myostatin
T3 sequence (looked up): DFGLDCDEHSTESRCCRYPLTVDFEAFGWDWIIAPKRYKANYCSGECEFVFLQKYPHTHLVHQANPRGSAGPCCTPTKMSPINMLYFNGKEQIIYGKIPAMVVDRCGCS
Description: as §1, §2

- Activin Inhibition Activity (KI) (activin A [1]): 1000 nM
- GDF11 Inhibition Activity (KI) (GDF11 [2]): 1000 nM
Molecule: ActRIIB-Fc A64 20-134 (Fc fusion)

- Kd (activin A [3]): 0.104 nM
- koff (activin A [3]): 0.000346 s⁻¹
- kon (activin A [3]): 3.34e+06 M⁻¹ s⁻¹
- Kd (GDF11 [4]): 0.0519 nM
- koff (GDF11 [4]): 6.35e-05 s⁻¹
B1: ActRIIB(A24N 20-134)-hFc (Fc fusion)
chain: GRGENETRECIYYNANWELERTNQSGLERCEGEQDKRLHCYASWRNSSGTIELVKKGCWLDDFNCYDRQECVATEENPQVYFCCCEGNFCNERFTHLPEAGGPEVTYEPPPTAPTGGGTHTCPPCPAPELLGGPSVFLFPPKPKDTLMISRTPEVTCVVVDVSHEDPEVKFNWYVDGVEVHNAKTKPREEQYNSTYRVVSVLTVLHQDWLNGKEYKCKVSNKALPVPIEKTISKAKGQPREPQVYTLPPSREEMTKNQVSLTCLVKGFYPSDIAVEWESNGQPENNYKTTPPVLDSDGSFFLYSKLTVDKSRWQQGNVFSCSVMHEALHNHYTQKSLSLSPGK
modifications: A24N creates an N-linked glycosylation sequence (N-E-T), paragraph 96
notes: also called A24N variant

- Kd (activin A [3]): 0.0841 nM
- koff (activin A [3]): 0.000628 s⁻¹
- kon (activin A [3]): 7.46e+06 M⁻¹ s⁻¹
- Kd (GDF8): 2.15 nM
- koff (GDF8): 0.000209 s⁻¹
B2: ActRIIB(R64K 20-129)-hFc (Fc fusion)
chain: GRGEAETRECIYYNANWELERTNQSGLERCEGEQDKRLHCYASWKNSSGTIELVKKGCWLDDFNCYDRQECVATEENPQVYFCCCEGNFCNERFTHLPEAGGPEVTYEPPTGGGTHTCPPCPAPELLGGPSVFLFPPKPKDTLMISRTPEVTCVVVDVSHEDPEVKFNWYVDGVEVHNAKTKPREEQYNSTYRVVSVLTVLHQDWLNGKEYKCKVSNKALPVPIEKTISKAKGQPREPQVYTLPPSREEMTKNQVSLTCLVKGFYPSDIAVEWESNGQPENNYKTTPPVLDSDGSFFLYSKLTVDKSRWQQGNVFSCSVMHEALHNHYTQKSLSLSPGK
